The source of these data is the supplement of paper PMC12783771.

First the molecules themselves.
B1: library; a variant is named by its letters at X, in order (parent)
chain: MNIQIGELAKRTACPVVTIRFYEQEGLLPPPGRSRGNFRLYGEEHVERLQFIRHCRSLDMPLSDVRTLLSYRKRPDQDCGEVXMLLDEHIRQVESRIGALLELKHHLVELREACSGARPAQSCGILQXLSXCVCXTRGTTAHXSD

In data set [1] the parent is B1. In words: sfGFP reporter fluorescence (15 h) (µM FITC); higher = higher leak. To be noted: library round: Round 2; ligand: none. In short, it runs like this: (§1)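 Values are endpoint sfGFP fluorescence given as µM FITC equivalents. Fluorescence was read at 485/528 nm on a Synergy Neo2, and FITC standard curves were prepared in 50 mM sodium borate pH 8.5. Reactions of 1 μL combined BL21 Star (DE3) PANOx-SP extract, pPbrR-sfGFP reporter, 30 μg/mL GamS and linear PbrR templates (PCR-made, Echo-normalized to 5 nM), with 1 µM lead chloride, 30 µM zinc acetate or no metal, for 15 hr at 30 °C.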

Data set [2] covers variants of B1. In words: sfGFP reporter fluorescence (15 h) (µM FITC); higher = stronger transcriptional activation. To be noted: library round: Round 2. In short, it runs like this: as §1

± gives the standard deviation of the averaged measurements.

Consider MNIQIGELAKRTACPVVTIRFYEQEGLLPPPGRSRGNFRLYGEEHVERLQFIRHCRSLDMPLSDVRTLLSYRKRPDQDCGEVSMLLDEHIRQVESRIGALLELKHHLVELREACSGARPAQSCGILQGLSMCVCATRGTTAHPSD [SGMAP], for which the figures for the sfGFP reporter fluorescence in data set [1], in data set [2] (ligand: 1 µM Pb) and in data set [2] (ligand: 30 µM Zn) were 0.0668 ± 0.0035, 0.0819 ± 0.0034 and 0.586 ± 0.076, respectively.

MNIQIGELAKRTACPVVTIRFYEQEGLLPPPGRSRGNFRLYGEEHVERLQFIRHCRSLDMPLSDVRTLLSYRKRPDQDCGEVNMLLDEHIRQVESRIGALLELKHHLVELREACSGARPAQSCGILQGLSACVCATRGTTAHSSD [NGAAS]: the sfGFP reporter fluorescence in data set [1] turned out to be 0.0633 ± 0.001; in data set [2] (ligand: 1 µM Pb) it was 0.107 ± 0.011; in data set [2] (ligand: 30 µM Zn) it was 1.08 ± 0.1.

As for MNIQIGELAKRTACPVVTIRFYEQEGLLPPPGRSRGNFRLYGEEHVERLQFIRHCRSLDMNLSDVRTLLSYRKRPDQDCGEVNMLLDEHIRQVESRIGALLELKHHLEELREACSGARPAQSCGILQGLSDCVCATRGTTAHPSD [NGDAP P61N V108E], the values for the sfGFP reporter fluorescence in data set [1], in data set [2] (ligand: 1 µM Pb) and in data set [2] (ligand: 30 µM Zn) were 0.0745 ± 0.0048, 0.129 ± 0.01 and 1.48 ± 0.14, respectively.

In the case of MNIQIGELAKRTACPVVTIRFYEQEGLLPPPGRSRGNFRLYGEEHVERLQFIRHCRSLDMPLSDVRTLLSYRKRPDQDCGEVTMLLDEHIRQVESRIGALLELKHHLVELREACSGARPAQSCGILQGISCCVCDTRGTTAHTSD [TGCDT L129I], the figures for the sfGFP reporter fluorescence in data set [1], in data set [2] (ligand: 1 µM Pb) and in data set [2] (ligand: 30 µM Zn) were 0.0433 ± 0.0032, 0.0464 and 0.0525 ± 0.0028, respectively.

Regarding MNIQIGELAKRTACPVVTIRFYEQEGLLPPPGRSRGNFRLYGEEHVERLQFIRHCRSLDLPLSKVRTLLSYRKRPDQDCGEVNMLLDEHIRQVESRIGALLELKHHLVELLEACSGARPAQSCGILQILSDCVCDTRGTTAHPSD [NIDDP M60L D64K R111L], the sfGFP reporter fluorescence was 1.98 ± 0.27 in data set [1], 3.14 ± 0.19 in data set [2] (ligand: 1 µM Pb) and 3.92 ± 0.41 in data set [2] (ligand: 30 µM Zn).

As for MNIQIGELAKRTACPVVTIRFYEQEGLLPPPGRSRGNFRLYGEEHVERLQFIRHCRSLDMPLSDVRTLLSYRKRPDQDCGEVNMLLDEHIRQVESRIGALLELKHHLVEVREACSGARPAQSCGILQGLSDCVCATRGTTAHYSD [NGDAY L110V], the sfGFP reporter fluorescence was 0.0649 ± 0.005 in data set [1], 0.0584 ± 0.0031 in data set [2] (ligand: 1 µM Pb) and 0.445 ± 0.032 in data set [2] (ligand: 30 µM Zn).

With MNIQIGELAKRTACPVVTIRFYEQEGLLPPPGRSRGNFRLYGEEHVERLQFIRHCRSLDMPLSDVRTLLSYRKRPDQDCGEVNMLLDEHIRQVESRIGALLELKHHCVVLREACSGARPAQSCGILQMLSDCVCDTRGTTAHPSD [NMDDP L107C E109V], the sfGFP reporter fluorescence in data set [1] worked out at 2.96 ± 0.17; in data set [2] (ligand: 1 µM Pb), 3.18 ± 0.55; in data set [2] (ligand: 30 µM Zn), 3.51 ± 0.14.
